For one assay, the target named is T1, His-MtuLigD protein (M. tuberculosis, UniProt P9WNV3 1-759).
T1 construct: The vector pET28a with a BamHI insert would put the His tag at the N-terminus
The assay can be described thus: pull-down. The conditions noted are these: both partners purified.

Another assay addresses T2, His-MsmLigD protein (M. smegmatis, UniProt A0R3R7 1-762).
T2 construct: Multifunctional DNA ligase LigD of Mycobacterium smegmatis; The vector pET28a with a BamHI insert would put the His tag at the N-terminus; source: E. coli BL21 (DE3), purified (Ni-NTA)
T2 sequence (looked up): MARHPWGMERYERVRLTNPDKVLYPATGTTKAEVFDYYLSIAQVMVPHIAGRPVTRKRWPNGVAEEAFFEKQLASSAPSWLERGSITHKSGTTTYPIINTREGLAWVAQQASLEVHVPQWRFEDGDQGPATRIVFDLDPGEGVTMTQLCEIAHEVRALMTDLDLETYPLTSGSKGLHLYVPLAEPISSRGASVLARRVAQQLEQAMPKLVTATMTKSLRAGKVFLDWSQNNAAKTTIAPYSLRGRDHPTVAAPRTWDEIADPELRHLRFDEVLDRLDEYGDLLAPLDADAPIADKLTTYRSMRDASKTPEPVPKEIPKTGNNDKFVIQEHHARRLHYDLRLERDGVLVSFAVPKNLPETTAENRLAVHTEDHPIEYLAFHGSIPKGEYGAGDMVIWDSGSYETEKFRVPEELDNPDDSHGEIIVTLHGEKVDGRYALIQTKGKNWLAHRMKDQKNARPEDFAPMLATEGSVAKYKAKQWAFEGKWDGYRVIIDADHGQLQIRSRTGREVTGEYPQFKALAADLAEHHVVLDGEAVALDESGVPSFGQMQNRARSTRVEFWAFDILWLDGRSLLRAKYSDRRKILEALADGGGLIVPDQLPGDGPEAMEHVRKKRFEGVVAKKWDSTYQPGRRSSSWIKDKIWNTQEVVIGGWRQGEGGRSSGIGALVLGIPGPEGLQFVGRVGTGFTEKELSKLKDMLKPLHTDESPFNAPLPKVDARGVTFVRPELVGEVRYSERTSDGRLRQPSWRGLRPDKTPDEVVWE
The assay is described as follows: pull-down; GST fusion held on glutathione-Sepharose 4B beads, incubated with purified His-tagged protein at 4°C for 8 h in 50 mM Tris-HCl pH 7.5, 200 mM NaCl, 10% glycerol; washes with 0.1% Nonidet P-40; Western blot with anti-His-tag antibody. The following applies: both partners purified. On the technique in general: A western blot detects proteins with antibodies after separation by electrophoresis.

T1 sequence (P9WNV3 whole entry): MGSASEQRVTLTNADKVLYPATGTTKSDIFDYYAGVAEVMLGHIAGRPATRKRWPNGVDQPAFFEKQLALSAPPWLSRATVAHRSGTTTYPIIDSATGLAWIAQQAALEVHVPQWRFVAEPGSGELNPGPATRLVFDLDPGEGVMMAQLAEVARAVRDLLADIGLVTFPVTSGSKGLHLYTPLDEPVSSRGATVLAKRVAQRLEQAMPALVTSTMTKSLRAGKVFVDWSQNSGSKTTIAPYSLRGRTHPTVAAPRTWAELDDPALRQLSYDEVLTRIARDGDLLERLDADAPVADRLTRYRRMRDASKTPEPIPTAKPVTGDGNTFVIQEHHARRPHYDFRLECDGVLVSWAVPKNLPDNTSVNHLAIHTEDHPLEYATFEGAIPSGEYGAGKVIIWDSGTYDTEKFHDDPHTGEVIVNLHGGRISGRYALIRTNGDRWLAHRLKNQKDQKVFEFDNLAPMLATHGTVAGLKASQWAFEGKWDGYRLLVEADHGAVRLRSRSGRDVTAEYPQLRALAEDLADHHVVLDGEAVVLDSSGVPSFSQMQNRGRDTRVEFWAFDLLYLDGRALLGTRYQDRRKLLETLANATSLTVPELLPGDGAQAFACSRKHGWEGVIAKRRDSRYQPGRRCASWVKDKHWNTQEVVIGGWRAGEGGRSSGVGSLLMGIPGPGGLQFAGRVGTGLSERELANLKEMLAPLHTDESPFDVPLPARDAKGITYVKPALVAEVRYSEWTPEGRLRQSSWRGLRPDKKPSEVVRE

B1: GST-MtuSir2 fusion protein (enzyme)
chain: MRVAVLSGAGISAESGVPTFRDDKNGLWARFDPYELSSTQGWLRNPERVWGWYLWRHYLVANVEPNDGHRAIAAWQDHAEVSVITQNVDDLHERAGSGAVHHLHGSLFEFRCARCGVPYTDALPEMPEPAIEVEPPVCDCGGLIRPDIVWFGEPLPEEPWRSAVEATGSADVMVVVGTSAIVYPAAGLPDLALARGTAVIEVNPEPTPLSGSATISIRESASQALPGLLERLPALLK
notes: the vector pGEX-6P-1 would put GST at the N-terminus; also called MtuSir2-GST
As for B1, in the assay with His-MtuLigD protein, the binding result is recorded as “binds”.

B2: GST-MsmSir2 fusion protein (enzyme, M. smegmatis, UniProt A0R2N3 1-240, looked up)
chain: MQVTVLSGAGISAESGVPTFRDAETGLWAQVDPYEISSTDGWQRNPEKVWAWYLWRHYMMARVAPNEAHRTVAAWEDHLDVRVVTQNIDDLHERAGSTNVYHLHGSLFEFRCDACGSAFEGNLPEMPEPVETIDPPVCPCSGLIRPSVVWFGEPLPDAAWNRSVLAVSSADVVIVVGTSSIVYPAAGLPEAALAAGKPVIEVNPERTPLSDSATVSLRETASEALPTLLQRLPELLNRSA
notes: Sir2 (NAD-dependent deacetylase MSMEG_5175) of Mycobacterium smegmatis; the vector pGEX-6P-1 would put GST at the N-terminus; also called MsmSir2-GST; source: E. coli BL21 (DE3), purified (glutathione-Sepharose 4B)
On to B2, for which the binding result with His-MsmLigD protein is “binds”.
